The results in this text go back to the supplement of paper PMC11246515.

± gives the standard deviation of the averaged measurements.

The series in a line: total protein half-life in vivo (active degradation + dilution); higher = more stable protein.
Where [1] appears, read: E. coli NCM3722 delta-clpP delta-lon delta-hslV, growth: N-lim chemostat, doubling time 6 h.
Where [2] appears, read: E. coli NCM3722 delta-clpP, growth: N-lim chemostat, doubling time 6 h.
Where [3] appears, read: E. coli NCM3722 delta-hslV, growth: N-lim chemostat, doubling time 6 h.
Setting [4] is: E. coli NCM3722 delta-lon, growth: N-lim chemostat, doubling time 6 h.
Where [5] appears, read: E. coli NCM3722 delta-smpB, growth: N-lim chemostat, doubling time 6 h.
The mark [6] stands for this setting: wild type E. coli NCM3722, growth: C-lim chemostat, doubling time 3 h.
Setting [7] is: wild type E. coli NCM3722, growth: C-lim chemostat, doubling time 6 h.
Setting [8] is: wild type E. coli NCM3722, growth: C-lim chemostat, doubling time 12 h.
Where [9] appears, read: wild type E. coli NCM3722, growth: N-lim chemostat, doubling time 6 h.
[10] abbreviates: wild type E. coli NCM3722, growth: N-lim chemostat, doubling time 12 h.
[11] abbreviates: wild type E. coli NCM3722, growth: P-lim chemostat, doubling time 6 h.
Where [12] appears, read: wild type E. coli NCM3722, growth: P-lim chemostat, doubling time 12 h.

On to “MSRPLLQLALDHSSLEAAQRDVTLLKDSVDIVEAGTILCLNEGLGAVKALREQCPDKIIVADWKVADAGETLAQQAFGAGANWMTIICAAPLATVEKGHAMAQRCGGEIQIELFGNWTLDDARDWHRIGVRQAIYHRGRDAQASGQQWGEADLARMKALSDIGLELSITGGITPADLPLFKDIRVKAFIAGRALAGAANPAQVAGDFHAQIDAIWGGARA”, for which the “total protein half-life in vivo” value is, setting by setting: under setting [1], 4.65 h; under setting [2], 4 h; under setting [3], 4.08 ± 0.35 h; under setting [4], 4.77 h; under setting [5], 4.3 ± 0.38 h; under setting [6], 3.07 ± 0.25 h. Besides, the “total protein half-life in vivo” value reads like this: under setting [7], 5.17 ± 0.32 h; under setting [8], 9.07 ± 0.79 h; under setting [9], 3.93 h; under setting [10], 6.66 ± 0.91 h; under setting [11], 5.76 h; under setting [12], 9.91 ± 0.32 h.
Consider “MKLTIIRLEKFSDQDRIDLQKIWPEYSPSSLQVDDNHRIYAARFNERLLAAVRVTLSGTEGALDSLRVREVTRRRGVGQYLLEEVLRNNPGVSCWWMADAGVEDRGVMTAFMQALGFTAQQGGWEKC”, for which the “total protein half-life in vivo” value by setting is: under setting [1], 4.23 ± 0.29 h; under setting [2], 3.9 ± 0.53 h; under setting [3], 5.19 h; under setting [5], 3.46 ± 0.21 h; under setting [7], 6.2 ± 1.2 h; under setting [8], 11.91 ± 0.065 h. Besides, the “total protein half-life in vivo” value was 3.31 h under setting [9], 6.11 ± 1.4 h under setting [10], 5.99 ± 0.11 h under setting [11] and 12.9 ± 2.6 h under setting [12].
In the case of “MKPSVILYKALPDDLLQRLQEHFTVHQVANLSPQTVEQNAAIFAEAEGLLGSNENVNAALLEKMPKLRATSTISVGYDNFDVDALTARKILLMHTPTVLTETVADTLMALVLSTARRVVEVAERVKAGEWTASIGPDWYGTDVHHKTLGIVGMGRIGMALAQRAHFGFNMPILYNARRHHKEAEERFNARYCDLDTLLQESDFVCLILPLTDETHHLFGAEQFAKMKSSAIFINAGRGPVVDENALIAALQKGEIHAAGLDVFEQEPLSVDSPLLSMANVVAVPHIGSATHETRYGMAACAVDNLIDALQGKVEKNCVNPHVAD”, the “total protein half-life in vivo” value is 4.9 ± 1.3 h under setting [1]; 4.12 ± 0.17 h under setting [2]; 3.82 ± 0.29 h under setting [3]; 5.02 ± 0.68 h under setting [4]; 3.89 ± 0.12 h under setting [5]; 2.95 ± 0.11 h under setting [6]. Besides, the “total protein half-life in vivo” value reads like this: under setting [7], 5.5 ± 0.48 h; under setting [8], 8.92 ± 0.31 h; under setting [9], 4.03 ± 0.16 h; under setting [10], 6.22 ± 0.18 h; under setting [11], 5.53 ± 0.1 h; under setting [12], 11.1 ± 0.45 h.
For “MLQIVGALILLIAGFAILRLLFRALISTASALAGLILLCLFGPALLAGYITERITRLFHIRWLAGVFLTIAGMIISFMWGLDGKHIALEAHTFDSVKFILTTALAGGLLAVPLQIKNIQQNGITPEDISKEINGYYCCFYTAFFLMACSACAPLIALQYDISPSLMWWGGLLYWLAALVTLLWAASQIQALKKLTCAISQTLEEQPVLNSKSWLTSLQNDYSLPDSLTERIWLTLISQRISRGELREFELADGNWLLNNAWYERNMAGFNEQLKENLSFTPDELKTLFRNRLNLSPEANDDFLDRCLDGGDWYPFSEGRRFVSFHHVDELRICASCGLTEVHHAPENHKPDPEWYCSSLCRETETLCQEIYERPYNSFISDATANGLILMKLPETWSTNEKMFASGGQGHGFAAERGNHIVDRVRLKNARILGDNNARNGADRLVSGTEIQTKYCSTAARSVGAAFDGQNGQYRYMGNNGPMQLEVPRDQYAGAVETMRNKIREGKVEER”, the “total protein half-life in vivo” value by setting is: under setting [2], 0.668 h; under setting [10], 0.674 h; under setting [12], 2.58 ± 0.79 h.
Consider “MALNTPQITPTKKITVRAIGEELPRGDYQRCPQCDMLFSLPEINSHQSAYCPRCQAKIRDGRDWSLTRLAAMAFTMLLLMPFAWGEPLLHIWLLGIRIDANVMQGIWQMTKQGDAITGSMVFFCVIGAPLILVTSIAYLWFGNRLGMNLRPVLLMLERLKEWVMLDIYLVGIGVASIKVQDYAHIQAGVGLFSFVALVILTTVTLSHLNVEELWERFYPQRPATRRDEKLRVCLGCHFTGYPDQRGRCPRCHIPLRLRRRHSLQKCWAALLASIVLLLPANLLPISIIYLNGGRQEDTILSGIMSLASSNIAVAGIVFIASILVPFTKVIVMFTLLLSIHFKCQQGLRTRILLLRMVTWIGRWSMLDLFVISLTMSLINRDQILAFTMGPAAFYFGAAVILTILAVEWLDSRLLWDAHESGNARFDD [P0AD03]”, for which the “total protein half-life in vivo” value runs as follows: under setting [2], 3.28 h; under setting [4], 4.34 h; under setting [5], 4.47 h; under setting [9], 4.43 h; under setting [11], 3.99 h; under setting [12], 6.67 ± 0.85 h.
With “MQNRLTIKDIARLSGVGKSTVSRVLNNESGVSQLTRERVEAVMNQHGFSPSRSARAMRGQSDKVVAIIVTRLDSLSENLAVQTMLPAFYEQGYDPIMMESQFSPQLVAEHLGVLKRRNIDGVVLFGFTGITEEMLAHWQSSLVLLARDAKGFASVCYDDEGAIKILMQRLYDQGHRNISYLGVPHSDVTTGKRRHEAYLAFCKAHKLHPVAALPGLAMKQGYENVAKVITPETTALLCATDTLALGASKYLQEQRIDTLQLASVGNTPLMKFLHPEIVTVDPGYAEAGRQAACQLIAQVTGRSEPQQIIIPATLS”, the “total protein half-life in vivo” value amounted to 5.44 ± 0.36 h under setting [1]; 5.57 h under setting [2]; 5.41 ± 1 h under setting [3]; 5.53 ± 0.32 h under setting [4]; 4.96 ± 0.47 h under setting [5]; 2.888 ± 0.0064 h under setting [6]. The “total protein half-life in vivo” value is 5.6 ± 0.49 h under setting [7]; 12.4 ± 2.4 h under setting [8]; 5.0404 ± 0.0037 h under setting [9]; 10.5 ± 1.1 h under setting [10]; 4.72 ± 0.12 h under setting [11]; 10.2 ± 1.8 h under setting [12].
For “MSELSQLSPQPLWDIFAKICSIPHPSYHEEQLAEYIVGWAKEKGFHVERDQVGNILIRKPATAGMENRKPVVLQAHLDMVPQKNNDTVHDFTKDPIQPYIDGEWVKARGTTLGADNGIGMASALAVLADENVVHGPLEVLLTMTEEAGMDGAFGLQGNWLQADILINTDSEEEGEIYMGCAGGIDFTSNLHLDREAVPAGFETFKLTLKGLKGGHSGGEIHVGLGNANKLLVRFLAGHAEELDLRLIDFNGGTLRNAIPREAFATIAVAADKVDVLKSLVNTYQEILKNELAEKEKNLALLLDSVANDKAALIAKSRDTFIRLLNATPNGVIRNSDVAKGVVETSLNVGVVTMTDNNVEIHCLIRSLIDSGKDYVVSMLDSLGKLAGAKTEAKGAYPGWQPDANSPVMHLVRETYQRLFNKTPNIQIIHAGLECGLFKKPYPEMDMVSIGPTITGPHSPDEQVHIESVGHYWTLLTELLKEIPAK”, the “total protein half-life in vivo” value runs as follows: under setting [1], 4.741 ± 0.0055 h; under setting [2], 4.94 ± 0.75 h; under setting [3], 5.28 ± 0.26 h; under setting [4], 4.816 ± 0.018 h; under setting [5], 4.53 ± 0.12 h; under setting [6], 3.09 ± 0.14 h. Besides, the “total protein half-life in vivo” value runs as follows: under setting [7], 5.61 ± 0.4 h; under setting [8], 11.1 ± 0.36 h; under setting [9], 4.81 ± 0.18 h; under setting [10], 8.14 ± 0.0087 h; under setting [11], 5.88 ± 0.37 h; under setting [12], 13.7 ± 3.1 h.
In the case of “MATTQQSGFAPAASPLASTIVQTPDDAIVAGFTSIPSQGDNMPAYHARPKQSDGPLPVVIVVQEIFGVHEHIRDICRRLALEGYLAIAPELYFREGDPNDFADIPTLLSGLVAKVPDSQVLADLDHVASWASRNGGDVHRLMITGFCWGGRITWLYAAHNPQLKAAVAWYGKLTGDKSLNSPKQPVDIATDLNAPILGLYGGQDNSIPQESVETMRQALRAANAKAEIIVYPDAGHAFNADYRPSYHAASAEDGWQRMLEWFKQYGGKKSL”, the “total protein half-life in vivo” value was determined as 4.8 ± 0.66 h under setting [1]; 3.82 ± 0.21 h under setting [2]; 4.01 ± 0.11 h under setting [3]; 4.18 ± 0.37 h under setting [4]; 3.92 ± 0.051 h under setting [5]; 2.59 ± 0.14 h under setting [6]. In addition, the “total protein half-life in vivo” value under setting [7] is 4.52 ± 0.53 h; the “total protein half-life in vivo” value under setting [8] is 8.52 ± 2.4 h; the “total protein half-life in vivo” value under setting [9] is 3.85 ± 0.1 h; the “total protein half-life in vivo” value under setting [10] was 5.35 ± 1.5 h; the “total protein half-life in vivo” value under setting [11] worked out at 4.06 ± 0.17 h; the “total protein half-life in vivo” value under setting [12] turned out to be 8.35 ± 0.2 h.
